Reference: patent US20120269734

T1: Luc8 fusion protein (Luc8-PLGVR-6xHis)
T1 chain: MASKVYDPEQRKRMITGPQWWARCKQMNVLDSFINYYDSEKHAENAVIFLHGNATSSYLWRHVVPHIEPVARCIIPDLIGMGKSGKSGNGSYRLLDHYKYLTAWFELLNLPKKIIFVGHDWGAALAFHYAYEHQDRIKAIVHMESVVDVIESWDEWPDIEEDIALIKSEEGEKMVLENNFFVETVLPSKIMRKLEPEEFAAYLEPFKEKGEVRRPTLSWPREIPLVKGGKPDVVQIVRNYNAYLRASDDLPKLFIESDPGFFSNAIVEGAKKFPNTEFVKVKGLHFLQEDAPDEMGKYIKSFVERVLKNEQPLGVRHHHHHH


Tests used:
[1] = test system: kemptide (substrate of PKA), conjugated to the bioluminescent protein Luc8 as in the method of FIG. 21b
[2] = biological target: T1, Luc8 fusion protein (Luc8-PLGVR-6xHis)

Row | Molecule | BRET ratio after the PKA phosphorylation (method of FIG. 21b) [1] | BRET ratio before the PKA phosphorylation (method of FIG. 21b) [1] | BRET ratio after 24 hours at 22° C., MMP-2 at 20 ng/mL (~300 pM) [2] | BRET ratio at the start, MMP-2 at 20 ng/mL (~300 pM) [2] | BRET ratio before the MMP-2 cleavage (t=0); fusion protein 16 µM, MMP-2 10 µg/mL, 22° C. [2] | BRET ratio within 30 minutes of incubation with MMP-2 (10 µg/mL) [2] | BRET ratio within 2 hours of incubation with MMP-2 (10 µg/mL) [2] | NuPAGE assay [2] | decrease of the BRET ratio after 24 hours at 22° C. with MMP-2 at 20 ng/mL (~300 pM) [2] | gel electrophoresis (4-12% Bis-Tris denaturing gel, Coomassie) [2]
1 | Protein Kinase A (PKA) | The BRET ratio was increased from 0.15 to 0.47 after the PKA phosphorylation of the substrate kemptide | The BRET ratio was increased from 0.15 to 0.47 after the PKA phosphorylation of the substrate kemptide | – | – | – | – | – | – | – | –
2 | active human recombinant MMP-2 (CalBiochem) (protein) YNFFPRKPKWDKNQITYRIIGYTPDLDPETVDDAFARAFQVWSDVTPLRFSRIHDGEADIMINFGRWEHGDGYPFDGKDGLLAHAFAPGTGVGGDSHFDDDELWTLGEGQVVRVKYGNADGEYCKFPFLFNGKEYNSCTDTGRSDGFLWCSTTYNFEKDGKYGFCPHEALFTMGGNAEGQPCKFPFRFQGTSYDSCTTEGRTDGYRWCGTTEDYDRDKKYGFCPETAMSTVGGNSEGAPCVFPFTFLGNKYESCTSAGRSDGKMWCATTANYDDDRKWGFCPDQGYSLFLVAAHEFGHAMGLEHSQDPGALMAPIYTYTKNFRLSQDDIKGIQELYGASPDIDLGTGPTPTLGPVTPEICKQDIVFDGIAQIRGEIFFFKDRFIWRTVTPRDKPMGPLLVATFWPELPEKIDAVYEAPQEEKAVFFAGNEYWIYSASTLERGYPKPLTSLGLPPDVQRVDAAFNWSKNKKTYIFAGDKFWRYNEVKKKMDPGFPKLIADAWNAIPDNLDAVVDLQGGGHSYFFKGAYYLKLENQSLKSVKFGSIKSDWLGC | – | – | the BRET ratio decreased by ~20% from 1.6 to 1.3 for a concentration of MMP-2 of 20 ng/mL (~300 pM) | the BRET ratio decreased by ~20% from 1.6 to 1.3 for a concentration of MMP-2 of 20 ng/mL (~300 pM) | the BRET ratio was 1.64 | Within 30 minutes, the BRET ratio dropped to 0.62 | the reaction was nearly complete within 2 hours with a BRET ratio of 0.21 | NuPAGE assay detected a protein product with a smaller size, confirming the hydrolysis by MMP-2 | the BRET ratio decreased by ~20% from 1.6 to 1.3 for a concentration of MMP-2 of 20 ng/mL (~300 pM) | Gel electrophoresis analysis confirmed the cleavage of the fusion protein by MMP-2
